This note sets out measurements from paper doi:10.1101/2023.07.10.548257 (bioRxiv, 2024).

Where a chain is given by its changes, count along the chain named. No end group written: not given here.

Assay [1] deals with SHP2 N-SH2 domain, wild type (N-SH2-Avi-biotin) (UniProt Q06124). Put plainly: peptide display screen (pTyr-Var Library). The following applies: N = 2 independent library transformations and screens, read off a plot.
The target of a further assay is T1, SHP2 N-SH2^T42A domain (Homo sapiens, UniProt Q06124, T42A).
T1 construct: SHP2 SH2 domains were cloned into a His6-SUMO-SH2-Avi construct; His6-SUMO (N, cleaved yes); made in house; host or cells: E. coli C43(DE3), co-expressed with BirA
T1 sequence (Q06124 6-102 T42A limits assumed): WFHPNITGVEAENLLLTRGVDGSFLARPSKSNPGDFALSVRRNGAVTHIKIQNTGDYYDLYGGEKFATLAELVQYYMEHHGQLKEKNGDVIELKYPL
Description: Direct fluorescence polarization binding, N-SH2 T42A. As to conditions: direct fluorescence polarization with fluorescent peptide. The procedure:
Fluorescence polarization binding assays
SH2 domains were thawed in room temperature water and their absorbance at 280 nm was measured to determine concentration. SH2 domains were serially diluted 15 times in assay buffer (60 mM HEPES pH 7.2, 75 mM KCl, 75 mM NaCl,1 mM EDTA, 0.05% Tween-20), with a 2x starting concentrations generally in the low micromolar range. […] The […]
fluorescent peptide was diluted to 2x the desired concentration and mixed in 1:1 ratio with the different concentrations of SH2 domain (specific fluorescent peptide concentrations can be found in Table S2).
The mixture was transferred to a black 96-well plate and incubated for 15 minutes at room temperature. Parallel and perpendicular measurements were taken using the 485/30 polarization cube on the BioTek Neo2 Plate Reader. Data was analyzed and fitted to a quadratic binding equation to determine the KD for the fluorescent peptide, according to previously established methods (2, 3). […]
P-values comparing affinities for different SH2 domains were calculated using an unpaired Welch’s t-test. […]
Right before starting the plate reader assay, 30 μL SHP2 was added to each well a Supplementary Information - page 4 of 18
On the technique in general: In fluorescence polarisation assays a small probe gives low polarisation when free and higher when bound to something large.

The target of assay [2] is MLH1 pTyr 293 L292P peptide THPFP-pY-LSLEI. Description: peptide display screen (pTyr-Var Library). As to conditions: N = 2 independent library transformations and screens; parent: est. 2.9; read off a plot.
Assay [3] deals with MERTK pTyr 872 I871V peptide QADVV-pY-VNTQL. Put plainly: peptide display screen (pTyr-Var Library). As to conditions: N = 2 independent library transformations and screens; parent: est. 1.0; read off a plot.
For assay [4], the target named is ALDH2 pTyr 502 E504K peptide FGLQA-pY-TKVKT. Put plainly: peptide display screen (pTyr-Var Library). As to conditions: N = 2 independent library transformations and screens; parent: est. 1.3; read off a plot.
A further assay concerns the target T2, SHP2 N-SH2^WT domain (Homo sapiens, UniProt Q06124).
T2 construct: SHP2 SH2 domains were cloned into a His6-SUMO-SH2-Avi construct; His6-SUMO (N, cleaved yes); made in house; host or cells: E. coli C43(DE3), co-expressed with BirA
T2 sequence (Q06124 6-102 limits assumed): T1 sequence (Q06124 6-102 T42A limits assumed) with A37T
Description: SH2 specificity profiling by bacterial peptide display (Human pTyr and pTyr-Var Libraries), N-SH2 WT. The class given is binding. How it is done:
(§1) Next, we characterized the sequence specificity of the SH2 mutants relative to their wild-type counterparts in a large-scale, unbiased screen. […] For each peptide in a library, an enrichment score is calculated from the deep sequencing data as the frequency of the peptide in the SH2-enriched sample divided by the frequency of the peptide in the unenriched input sample ([34]). For this study, we used two largely non-overlapping libraries, both encoding known human phosphosites. […] The Human pTyr Library consists of 1,916 sequences derived from known phosphorylation sites in the human proteome, along with another 617 control mutants ([35]). […]
(§2) SH2 specificity profiling using bacterial peptide display
(§3) Preparation of bacterial cells
(§4) Electrocompetent MC1061 cells were transformed with ~100 ng of the respective library. After 1 hour recovery in 1 mL LB, cells were further diluted into 250 mL LB + 0.1% chloramphenicol. 1.8 mL of overnight culture was used to inoculate 100 mL LB + 0.1% chloramphenicol, and grown until OD600 reached 0.5. 20 mL of cell suspension was induced at 25 °C using a final concentration of 0.4% arabinose until the OD600 ~ 1 (after approximately 4 hours). The cells were spun down at 4000 rpm for 15 minutes, and the pellet was resuspended in PBS so that the OD600 ~1.5. The cells were stored in the fridge and used within a week.
(§5) For each sample, 75 μL of Dynabeads™ FlowComp™ Flexi Kit were washed twice in 1 mL SH2 buffer (50 mM HEPES pH 7.5, 150 mM NaCl, 1 mM TCEP, and 0.2% BSA) on a magnetic rack.
(§6) The beads were then resuspended in 75 μL of SH2 buffer. SH2 domains were thawed quickly and 20 μM of protein was added to the beads. SH2 buffer was added up to 150 μL, and the suspension was incubated for 1 hour at 4 °C while rotating. After 1 hour, the suspension was placed on a magnetic rack and washed twice with 1 mL SH2 buffer.
(§7) Preparing the phosphorylated cells
(§8) 150 μL of prepared cells per sample were spun down for 4000 rpm for 5 minutes at 4 °C.
(§9) Kinase screen buffer was prepared (50 mM Tris, 10 mM magnesium chloride, 150 mM sodium chloride; add 2 mM sodium orthovanadate and 1 mM TCEP fresh) and the cells of each sample were resuspended in 100 μL kinase screen buffer. Kinases c-Src, c-Abl, AncSZ, Eph1B were added to a final concentration of 2.5 µM each, creatine phosphate was added to a final concentration of 5 mM, and phosphokinase was added to a final concentration of 50 µg/mL. The suspension was incubated at 37 °C for 5 minutes before ATP was added to a final concentration of 1 mM. This mixture was incubated at 37 °C for 3 hours. After 3 hours, EDTA was added to a final concentration of 25 mM to quench the reaction. The input library control sample was not phosphorylated. These cells were spun down at 4000 rpm for 15 minutes at 4 °C. The cells were then resuspended in 100 µL of SH2 buffer + 0.1% BSA. Phosphorylation of the cells was confirmed by labeling with the PY20-PerCP-eFluor 710 pan-phosphotyrosine antibody followed by analysis via flow cytometry.
(§10) Enriching for cells displaying high-affinity phosphopeptide ligands
(§11) 100 μL of phosphorylated cells were mixed with 75 µL SH2-beads for 1 hour at 4 °C while rotating. After 1 hour, samples were placed on a magnetic rack, supernatant was removed and 1 mL SH2 buffer was added to each sample. This was rotated for 30 minutes at 4 °C to wash the beads.
(§12) After this wash, the beads were placed on a magnetic rack, the supernatant was removed and 50 µL […]
(§13) Preparing sequencing samples & deep sequencing
(§14) All SH2-selected samples and the input library control were resuspended in 50 µL MilliQ water, vortexed, and boiled for 10 minutes at 100 °C. The boiled lysate was used as the DNA template in a PCR reaction using the TruSeq-eCPX-Fwd and TruSeq-eCPX-Rev primers. The mixture resulting from this PCR was used directly into a second PCR to append Illumina sequencing adaptors and Supplementary Information - page 5 of 18 […]
(§15) unique 5’ and 3’ indices to each sample (D700 and D500 series primers). The resulting PCR mixtures […]

Another assay addresses T3, SHP2 C-SH2^WT domain (Homo sapiens, UniProt Q06124).
T3 construct: SHP2 SH2 domains were cloned into a His6-SUMO-SH2-Avi construct; His6-SUMO (N, cleaved yes); made in house; host or cells: E. coli C43(DE3), co-expressed with BirA
T3 sequence (Q06124 112-216 limits assumed): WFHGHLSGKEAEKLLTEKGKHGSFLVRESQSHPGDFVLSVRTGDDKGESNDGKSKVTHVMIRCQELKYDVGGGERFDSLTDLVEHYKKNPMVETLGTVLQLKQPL
Description: SH2 specificity profiling by bacterial peptide display (Human pTyr and pTyr-Var Libraries), C-SH2 WT. It is filed as binding. The procedure: as §1, §2, §3, §4, §5, §6, §7, §8, §9, §10, §11, §12, §13, §14, §15

The next assay has as its target T4, SHP2 C-SH2^E139D domain (Homo sapiens, UniProt Q06124, E139D).
T4 construct: SHP2 SH2 domains were cloned into a His6-SUMO-SH2-Avi construct; His6-SUMO (N, cleaved yes); made in house; host or cells: E. coli C43(DE3), co-expressed with BirA
T4 sequence (Q06124 112-216 E139D limits assumed): T3 sequence (Q06124 112-216 limits assumed) with E28D
Description: SH2 specificity profiling by bacterial peptide display (Human pTyr and pTyr-Var Libraries), C-SH2 E139D. It is filed as binding. How it is done:
as §1, §2, §3, §4, §5, §6, §7, §8, §9, §10, §11, §12, §13, §14, §15

The mark [5] stands for this setting: average enrichment score above cutoff of 3.2 (true binder).
Setting [6] is: bacterial peptide display, frequency in enriched sample / input, average, Human pTyr Library N = 3, pTyr-Var Library N = 2.

Take “MERTK pTyr 872 peptide QADVI-pY-VNTQL I871V”: in assay [1] (parent: est. 1.0), the enrichment (fselected / finput) stood at 1.

“MERTK pTyr 872 peptide QADVI-pY-VNTQL I871T”: in assay [1] (parent: est. 1.0), the enrichment (fselected / finput) was determined as 1.5.

With `CC[C@H](C)[C@H](NC(=O)[C@H](Cc1ccc(OP(=O)(O)O)cc1)NC(=O)[C@H](CC(N)=O)NC(=O)[C@H](CC(C)C)NC(=O)CNC(=O)[C@H](CC(N)=O)NC(=O)[C@H](CCC(=O)O)NC(=O)CCCCCNC(=S)Nc1ccc2c(c1)C(=O)OC21c2ccc(O)cc2Oc2cc(O)ccc21)C(=O)N[C@@H](CC(=O)O)C(=O)N[C@@H](CC(C)C)C(=O)N[C@@H](CC(=O)O)C(=O)N[C@@H](CC(C)C)C(N)=O`, on SHP2 N-SH2^T42A domain, the “tighter binding of N-SH2^T42A compared to N-SH2^WT” value amounted to 5 fold.

Regarding “Sm1; MLH1 pTyr 293 peptide THPFL-pY-LSLEI N-SH2: T42A; MLH1 peptide: L292P”, the enrichment (fselected / finput) in assay [2] turned out to be 8.6.

On to “ALDH2 pTyr 502 peptide FGLQA-pY-TEVKT E504K”, for which the enrichment (fselected / finput) in assay [1] (parent: est. 1.3) is 1.3.

On to “Sm1; MERTK pTyr 872 peptide QADVI-pY-VNTQL N-SH2: T42A; MERTK peptide: I871V”, for which the enrichment (fselected / finput) in assay [3] is 3.8.

Take “Sm1; ALDH2 pTyr 502 peptide FGLQA-pY-TEVKT N-SH2: T42A; ALDH2 peptide: E504K”: the enrichment (fselected / finput) in assay [4] amounted to 1.8.

As for “MKGDYYRYLAEVATG (also: phosphorylated, site not given here) [1433G_HUMAN_133]”, in the assay with SHP2 N-SH2^WT domain (setting [5]), the “>3.2 --> N-WT-Ave” value is recorded as “FALSE (>3.2 -->)”. Moreover, in the assay with SHP2 N-SH2^WT domain (bacterial peptide display, enzymatically phosphorylated displayed peptides, SH2-coated beads, deep sequencing, frequency in enriched sample / input, average, Human pTyr Library N = 3, pTyr-Var Library N = 2), the “N-WT-Ave (enrichment score)” value came out at 0.8572. Further, the “>3.2 --> C-WT-Ave” value in the assay with SHP2 C-SH2^WT domain (setting [5]) is “FALSE (>3.2 -->)”. Moreover, the “C-WT-Ave (enrichment score)” value in the assay with SHP2 C-SH2^WT domain (setting [6]) is reported as 0.777. Moreover, the “>3.2 --> C-E139D-Ave” value with SHP2 C-SH2^E139D domain (setting [5]) was “FALSE (>3.2 -->)”. For the same compound, the “C-E139D-Ave (enrichment score)” value with SHP2 C-SH2^E139D domain (setting [6]) stood at 0.8393.

Regarding “MLH1 pTyr 293 peptide THPFL-pY-LSLEI L292P”, the enrichment (fselected / finput) in assay [1] (parent: est. 2.9) turned out to be 1.4.
